Test results reported in patent publication US20230227537A1.
Values joined by “and” are separate entries in the source; they are usually repeats but may differ in a detail not shown here. Equal entries are not always repeated.

Target: Mouse IgG1 Fc fused SARS-CoV-2 RBD (Sino Biological) (SARS-CoV-2; mouse), P0DTC2
Conditions: remark: other sources report otherwise

B1: VHH72_S56A-Fc (P. pastoris) (Fc fusion)
chain: QVQLQESGGGLVQAGGSLRLSCAASGRTFSEYAMGWFRQAPGKEREFVATISWSGGATYYTDSVKGRFTISRDNAKNTVYLQMNSLKPDDTAVYYCAAAGLGTVVSEWDYDYDYWGQGTQVTVSS
Question: B1 was tested. Which % Signal decrease over 8 min dissociation did it give?
Answer: The % Signal decrease over 8 min dissociation was 6% and 7%.

Question: And the Kd?
Answer: Its Kd is 0.0496 nM and 0.0541 nM.

Question: What about the koff of the same binder?
Answer: The koff was 0.000123 s⁻¹ and 0.000146 s⁻¹.

Question: What about the kon of the same binder?
Answer: The kon was 2.48e+06 M⁻¹ s⁻¹ and 2.69e+06 M⁻¹ s⁻¹.
